Where “and” joins values, the source holds several entries; their conditions need not be identical. Equal entries are not always repeated.
Columns and labels:
[1] = test system: GFP-tagged M1 receptor in HEK293 cells; assay: Co-immunoprecipitation, M1; type: cell-based; details: 48 h expression, anti-GFP immunoprecipitation
Method: HEK293 cells stably expressing N-terminal GFP-tagged ADRB1, ADRB2, CALCR and M1 or MyrPalm-mYFP were transfected with pcDNA3.1 containing the sequence for a central domain of GASP-1 (AA 380 to 1073) using JetPEI reagent (polyplus transfection) according to the instructions from the manufacturer. After 48 h of expression, cells were washed twice with PBS and lysed in a buffer containing 10 mM Tris-HCl, pH 7.4, 150 mM NaCl, 25 mM KCl, 0.3% Triton X-100 and cOmplete protease inhibitors (Roche) for 1 h at 4°C under agitation. 500 µg of cleared lysates were incubated with 1 µg of a mouse monoclonal anti-GFP antibody (Invitrogen) overnight at 4°C, followed by an incubation with 40 µl of protein A-Sepharose beads for an additional 2 h at 4°C. Beads were then washed five times in lysis buffer and precipitates were resolved on an 8% gel by SDS–PAGE and electrotransferred to immobilon-P membranes (Millipore) in 50 mM Tris-boric acid for 1 h at 300 mA. Membranes were blocked with 5% non-fat powder milk in TBS-Tween (50 mM Tris-HCl pH 8, 150 mM NaCl, 0.4% Tween-20) for 1 h at room temperature. […] For immunodetection of GASP or GFP-tagged receptors directly from cell lysates, 10 µg of proteins were loaded on SDS gels and analyzed following the procedure described above. Finally, membranes were washed in TBS-Tween and detected by chemiluminescence (ECL prime, GE Healthcare). […]

[2] = test system: full-length CNR2 (cannabinoid receptor type 2); assay: SPR saturation binding, CNR2; design: species or system human
Method: The human ADRB2 and CNR2 receptors were produced using the P. pastoris expression system as previously described, [16]. After methanol-induced receptor expression, cells were washed with PBS pH 7.0 and resuspended in ice-cold buffer A (50 mM Tris-HCl pH 7.4, 500 mM NaCl, 10% glycerol, 5 mM EDTA, 1 mM PMSF, 2 mM DDT). Cells were then lysed with two cycles of 20 s shaking and 20 s cooling on ice using 0.5 mm glass beads in a FastPrep 24 device. Unbroken cells and cell debris were removed by centrifugation (3000 g, 5 min, 4°C) and the membrane fraction from the supernatant was pelleted by ultracentrifugation (100,000 g, 45 min, 4°C). […] Finally membranes were resuspended in buffer B and quantified with the bicinchoninic acid (BCA) method (Pierce).
Approximately 150 mg membrane proteins were extracted by 5 min incubation at room temperature in buffer C (50 mM Tris-HCl pH 7.4, 500 mM NaCl, 10% glycerol, 1 mM PMSF, 2 mM DTT, 50 mM imidazole, 1% (w/v) DDM, 0.1% (w/v) CHS). […] Imidazole was removed from the eluted fraction using a HiTrap 5 ml desalting column (GE Healthcare), purified proteins were quantified using the BCA assay (Pierce) and receptor integrity was analyzed by SDS-PAGE. […]

dissociation rate constant k d ([2]; 25°C, 50 mM Tris-HCl pH 7.4, 150 mM NaCl, 0.1% DDM, 0.01% CHS, captured GST-tagged central domain (AA 380–1073)): 6.5±0.1×10^−4 s^−1 and < 10^−3 s^−1
B1: central domain of GASP-1: central portion of GASP-1 (AA 380 to 1073) that contains 19 GASP motif (protein)
chain: MTKEEAKTKARARAKQEARSEEEALIGTWFWATDESSMADEASIESSLQVEDESIIGSWFWTEEEASMGTGASSKSRPRTDGERIGDSLFGAREKTSMKTGAEATSESILAADDEQVIIGSWFWAGEEVNQEAEEETIFGSWFWVIDAASVESGVGVSCESRTRSEEEEVIGPWFWSGEQVDIEAGIGEEARPGAEEETIFGSWFWAENQTYMDCRAETSCDTMQGAEEEEPIIGSWFWTRVEACVEGDVNSKSSLEDKEEAMIPCFGAKEEVSMKHGTGVRCRFMAGAEETNNKSCFWAEKEPCMYPAGGGSWKSRPEEEEDIVNSWFWSRKYTKPEAIIGSWLWATEESNIDGTGEKAKLLTEEETIINSWFWKEDEAISEATDREESRPEAEEGDIIGSWFWAGEEDRLEPAAETREEDRLAAEKEGIVGSWFGAREETIRREAGSCSKSSPKAEEEEVIIGSWFWEEEASPEAVAGVGFESKPGTEEEEITVGSWFWPEEEASIQAGSQAVEEMESETEEETIFGSWFWDGKEVSEEAGPCCVSKPEDDEEMIVESWFWSRDKAIKETGTVATCESKPENEEGAIVGSWFEAEDEVDNRTDNGSNCGSRTLADEDEAIVGSWFWAGDEAHFESNPSPVFRAICRSTCSVEQEPDPSRRPQSWEEVTVQFKPGPWGRVGFPSISPFRFPKE
modifications: left off: GST, N-terminal, kept
notes: central portion of GASP-1 (AA 380 to 1073) that contains 19 GASP motif
co-immunoprecipitation with M1 [1]: co-immunoprecipitated | kinetics of the interaction ([2]; full-length CNR2): very stable and had a slow association rate

— PMC3575409, “Identification of a Novel Protein-Protein Interaction Motif Mediating Interaction of GPCR-Associated Sorting Proteins with G Protein-Coupled Receptors” (PLoS ONE, 2013)
